Assay results: patent US20030143697A1

T1: gp130 on PC12D cells (UniProt P40190)
T1 sequence (looked up): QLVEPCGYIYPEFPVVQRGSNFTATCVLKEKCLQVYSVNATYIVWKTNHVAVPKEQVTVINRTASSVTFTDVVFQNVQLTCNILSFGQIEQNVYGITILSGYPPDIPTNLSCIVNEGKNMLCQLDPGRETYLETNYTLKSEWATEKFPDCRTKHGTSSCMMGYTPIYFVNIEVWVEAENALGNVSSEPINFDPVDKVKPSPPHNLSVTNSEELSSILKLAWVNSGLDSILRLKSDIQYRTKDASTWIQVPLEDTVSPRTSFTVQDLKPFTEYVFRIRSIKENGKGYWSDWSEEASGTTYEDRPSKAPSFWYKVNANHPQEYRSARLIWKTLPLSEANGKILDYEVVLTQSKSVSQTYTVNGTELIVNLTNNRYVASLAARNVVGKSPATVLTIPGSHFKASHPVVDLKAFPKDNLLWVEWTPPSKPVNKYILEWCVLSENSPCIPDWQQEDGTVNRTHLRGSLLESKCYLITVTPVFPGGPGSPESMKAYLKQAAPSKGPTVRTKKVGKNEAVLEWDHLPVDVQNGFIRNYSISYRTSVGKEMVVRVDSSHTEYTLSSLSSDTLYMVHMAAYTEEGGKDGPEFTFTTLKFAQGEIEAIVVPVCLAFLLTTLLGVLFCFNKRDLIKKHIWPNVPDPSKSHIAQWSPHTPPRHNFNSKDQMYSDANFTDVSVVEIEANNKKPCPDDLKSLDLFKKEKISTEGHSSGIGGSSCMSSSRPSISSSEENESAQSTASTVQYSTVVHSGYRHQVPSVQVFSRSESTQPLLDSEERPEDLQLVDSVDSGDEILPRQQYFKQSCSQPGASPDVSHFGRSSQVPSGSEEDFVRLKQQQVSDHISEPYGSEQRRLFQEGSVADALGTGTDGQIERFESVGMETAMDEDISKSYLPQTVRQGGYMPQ


Tests used:
[1] = target: recombinant human IL-1 (human); assay: cell-based or functional assay
human IL-4 (human) = human IL-4 (human) (UniProt P05112); assay: cell-based or functional assay
Chain of human IL-4 (human) (P05112 25-153 limits assumed): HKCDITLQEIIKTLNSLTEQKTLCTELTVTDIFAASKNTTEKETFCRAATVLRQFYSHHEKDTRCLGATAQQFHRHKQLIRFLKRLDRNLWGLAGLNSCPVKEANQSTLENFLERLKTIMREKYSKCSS

human IL-13 (human) = human IL-13 (human) (UniProt P35225); assay: cell-based or functional assay
Chain of human IL-13 (human) (P35225 35-146 limits assumed): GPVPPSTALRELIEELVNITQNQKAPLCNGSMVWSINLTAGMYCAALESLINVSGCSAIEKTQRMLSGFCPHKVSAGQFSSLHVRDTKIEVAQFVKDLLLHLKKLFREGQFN

human IL-6 (human) [2] = target: human IL-6 (human) (UniProt P05231); assay: cell-based or functional assay
Chain of human IL-6 (human) (P05231 30-212 limits assumed): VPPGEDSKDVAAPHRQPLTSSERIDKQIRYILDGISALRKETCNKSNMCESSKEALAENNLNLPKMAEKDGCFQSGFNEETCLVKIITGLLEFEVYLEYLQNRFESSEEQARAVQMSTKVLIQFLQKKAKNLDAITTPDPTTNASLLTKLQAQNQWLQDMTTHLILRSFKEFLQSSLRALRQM

gp130 on PC12D cells = target: T1, gp130 on PC12D cells; assay: cell-based or functional assay
human IL-6 (human) [3] = target: human IL-6 (human) (UniProt P05231); assay: dissociation of 20 pM 125I-IL-6 from 500 pM mAb B-E8 after a 1000-fold excess of cold IL-6; Protein G-Sepharose precipitation
human IL-6 (human) [4] = target: human IL-6 (human) (UniProt P05231); assay: cell-based or functional assay; remark: listed apart in the source

Chain of IL-1-RI.Fc (P14778 18-336): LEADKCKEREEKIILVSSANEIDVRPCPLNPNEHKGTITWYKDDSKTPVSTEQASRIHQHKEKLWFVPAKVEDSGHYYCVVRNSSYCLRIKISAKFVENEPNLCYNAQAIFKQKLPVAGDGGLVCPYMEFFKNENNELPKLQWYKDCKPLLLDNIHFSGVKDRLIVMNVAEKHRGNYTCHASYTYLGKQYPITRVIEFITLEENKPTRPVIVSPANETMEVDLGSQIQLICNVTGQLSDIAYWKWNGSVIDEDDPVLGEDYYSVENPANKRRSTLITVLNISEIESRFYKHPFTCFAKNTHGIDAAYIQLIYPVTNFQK

| TF1 bioassay (MTS); IL-4 concentration at which growth is inhibited by 50% with 10 nM Trap (human IL-4 (human)) | TF1 bioassay (MTS); highest IL-4 concentration whose growth effect is blocked by 10 nM Trap (human IL-4 (human)) | TF1 bioassay (MTS); IL-13 concentration at which growth is inhibited by 50% with 10 nM Trap (human IL-13 (human)) | TF1 bioassay (MTS); highest IL-13 concentration whose growth effect is blocked by 10 nM Trap (human IL-13 (human)) | Molecule | further results |
| --- | --- | --- | --- | --- | --- |
|  |  |  |  | IL-1-RI.Fc (from UniProt P14778 18-336) (Fc fusion) | IL-1-dependent production of IL-6 by MRC5 cells; highest IL-1 concentration blocked [1]: 10 to 20 pM |
| 3 to 4 nM | 1 nM | 4 to 5 nM | 2 nM | IL-4Rα.IL-13Rα1.Fc (Fc fusion) |  |
| 3 to 4 nM | 1 nM | 4 to 5 nM | 2 nM | IL-13Rα1.IL-4Rα.Fc (Fc fusion) |  |
|  |  |  |  | gp130-Fc•CNTFRα-Fc ligand Trap (Fc fusion) | IL-6-dependent proliferation of XG-1 cells (MTT assay) (fold molar excess over IL-6) (human IL-6 (human) [2]): 1000 |
|  |  |  |  | Rat CNTF (ligand, UniProt P20294 1-200, looked up) MAFAEQTPLTLHRRDLCSRSIWLARKIRSDLTALMESYVKHQGLNKNINLDSVDGVPVASTDRWSEMTEAERLQENLQAYRTFQGMLTKLLEDQRVHFTPTEGDFHQAIHTLMLQVSAFAYQLEELMVLLEQKIPENEADGMPATVGDGGLFEKKLWGLKVLQELSQWTVRSIHDLRVISSHQMGISALESHYGAKDKQM | tyrosine phosphorylation of gp130 induced by IL-6 and sIL-6Rα in PC12D cells (gp130 on PC12D cells): 8 nM; tyrosine phosphorylation of gp130 induced by IL-6 in PC12D cells (anti-gp130 immunoprecipitation, anti-phosphotyrosine immunoblot) (gp130 on PC12D cells): 2 nM |
|  |  |  |  | anti-IL-6 monoclonal neutralizing antibody B-E8 (antibody, from another filing, V domains shown) VH: QVTLKESGPGILKPSQTLSLTCSFSGFSLSTSGMGVGWIRQPSGKGLEWLAHIWWDDDKYYNPSLKSQLTISKDTSRNQVFLKITSVDTADTATYYCARSYDDYLYYALDYWGQGTSVTVSS VL: DIVMTQSPATLSVTPGDRVSLSCRASQSISDYLHWYQQKSHESPRLLIKSVSQSISGIPSRFSGSGSGSDFTLSINSVEPEDVGVYYCQNGHSFPLTFGAGTKLELK | percent of the initial counts of 125I-IL-6 still bound after three days (human IL-6 (human) [3]): < 5%; IL-6-dependent proliferation of XG-1 cells (MTT assay, 50 pg/ml IL-6) (fold molar excess) (human IL-6 (human) [4]): 10 |
